8 molecules from patent US20220204643A1 (published 2022) can be followed below.

Assay [1] deals with T1, butyrophilin subfamily 1 member A1 (human, UniProt Q13410 27-526).
T1 construct: on protein array; also called BTN1A1
T1 sequence: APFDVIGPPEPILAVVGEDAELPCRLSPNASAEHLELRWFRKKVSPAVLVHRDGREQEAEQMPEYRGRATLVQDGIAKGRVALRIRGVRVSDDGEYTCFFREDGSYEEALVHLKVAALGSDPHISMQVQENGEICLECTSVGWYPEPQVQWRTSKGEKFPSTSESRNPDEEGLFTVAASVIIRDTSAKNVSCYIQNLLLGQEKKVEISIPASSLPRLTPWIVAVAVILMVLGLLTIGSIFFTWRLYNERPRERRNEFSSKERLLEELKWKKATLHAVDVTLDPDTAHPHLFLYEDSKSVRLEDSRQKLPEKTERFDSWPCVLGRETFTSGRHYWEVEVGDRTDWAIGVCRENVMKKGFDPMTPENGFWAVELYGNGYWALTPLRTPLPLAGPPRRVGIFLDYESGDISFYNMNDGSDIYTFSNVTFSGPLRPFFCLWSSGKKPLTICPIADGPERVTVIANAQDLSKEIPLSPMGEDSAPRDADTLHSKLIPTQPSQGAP
As to the kind of experiment: protein array.

For a further assay, the target named is T2, Reticulocalbin 3 (human, UniProt Q96D15 21-328).
T2 construct: HuProt array protein, full-length recombinant from yeast; also called RCN3
T2 sequence: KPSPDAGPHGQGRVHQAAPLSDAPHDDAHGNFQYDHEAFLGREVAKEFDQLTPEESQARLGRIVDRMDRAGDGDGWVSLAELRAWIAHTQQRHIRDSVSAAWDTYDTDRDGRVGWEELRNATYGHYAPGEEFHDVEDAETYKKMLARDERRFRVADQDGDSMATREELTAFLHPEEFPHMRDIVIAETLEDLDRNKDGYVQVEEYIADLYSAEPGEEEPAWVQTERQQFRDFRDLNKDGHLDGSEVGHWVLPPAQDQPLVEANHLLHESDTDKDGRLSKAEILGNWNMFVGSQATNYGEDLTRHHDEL

Assay [2] concerns the target T3, synaptotagmin 12, transcript variant X4 (human, UniProt Q8IV01 1-421).
T3 construct: HuProt array protein, full-length recombinant from yeast; also called SYT12
T3 sequence: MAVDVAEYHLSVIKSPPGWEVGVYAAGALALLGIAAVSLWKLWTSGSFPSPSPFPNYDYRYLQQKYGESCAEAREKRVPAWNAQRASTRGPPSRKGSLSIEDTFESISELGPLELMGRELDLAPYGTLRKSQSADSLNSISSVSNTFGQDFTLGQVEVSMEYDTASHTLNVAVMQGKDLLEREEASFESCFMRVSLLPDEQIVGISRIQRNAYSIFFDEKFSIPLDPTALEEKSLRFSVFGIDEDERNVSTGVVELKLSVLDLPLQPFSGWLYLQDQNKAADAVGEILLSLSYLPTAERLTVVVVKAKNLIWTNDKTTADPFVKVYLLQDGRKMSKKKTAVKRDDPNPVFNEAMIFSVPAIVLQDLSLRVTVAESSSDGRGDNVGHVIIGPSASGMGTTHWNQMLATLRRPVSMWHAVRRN

In assay [3] the target is T4, glycogen phosphorylase L, transcript variant 1 (human, UniProt P06737 2-847).
T4 construct: HuProt array protein, full-length recombinant from yeast; also called PYGL
T4 sequence: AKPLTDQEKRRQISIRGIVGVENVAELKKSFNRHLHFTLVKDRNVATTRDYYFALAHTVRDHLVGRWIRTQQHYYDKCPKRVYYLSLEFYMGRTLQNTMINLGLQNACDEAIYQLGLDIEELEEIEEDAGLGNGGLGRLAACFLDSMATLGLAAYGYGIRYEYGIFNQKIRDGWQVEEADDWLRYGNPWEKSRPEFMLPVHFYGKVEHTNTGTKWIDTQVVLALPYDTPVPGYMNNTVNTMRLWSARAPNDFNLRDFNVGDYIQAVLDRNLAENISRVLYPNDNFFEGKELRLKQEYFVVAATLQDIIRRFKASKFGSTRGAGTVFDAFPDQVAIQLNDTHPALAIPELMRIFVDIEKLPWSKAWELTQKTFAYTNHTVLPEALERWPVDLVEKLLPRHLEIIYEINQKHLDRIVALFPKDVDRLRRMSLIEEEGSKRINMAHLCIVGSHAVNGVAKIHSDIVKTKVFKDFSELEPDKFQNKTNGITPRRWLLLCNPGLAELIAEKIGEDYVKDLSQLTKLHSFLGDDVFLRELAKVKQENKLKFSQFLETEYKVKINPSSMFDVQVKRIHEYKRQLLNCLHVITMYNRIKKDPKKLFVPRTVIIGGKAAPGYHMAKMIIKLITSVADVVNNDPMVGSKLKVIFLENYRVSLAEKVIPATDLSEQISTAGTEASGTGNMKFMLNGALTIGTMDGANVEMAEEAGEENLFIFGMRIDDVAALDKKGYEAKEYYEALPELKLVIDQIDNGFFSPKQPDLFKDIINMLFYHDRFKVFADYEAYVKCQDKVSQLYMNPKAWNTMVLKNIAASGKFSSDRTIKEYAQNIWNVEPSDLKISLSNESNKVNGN

The target of a further assay is T5, cancer/testis antigen 1A (human, UniProt P78358 1-180).
T5 construct: HuProt array protein, full-length recombinant from yeast; also called CTAG1A

Assay [4] deals with T6, actinin alpha 1, transcript variant 2 (human, UniProt P12814 1-892).
T6 construct: HuProt array protein, full-length recombinant from yeast; also called ACTN1

The target in assay [5] is T7, dual specificity phosphatase 12 (human, UniProt Q9UNI6 1-340).
T7 construct: HuProt array protein, full-length recombinant from yeast; also called DUSP12

The target of assay [6] is T8, olfactory receptor family 6 subfamily Q member 1 (gene/pseudogene) (human, UniProt Q8NGQ2 1-317).
T8 construct: HuProt array protein, full-length recombinant from yeast; also called OR6Q1
T8 sequence: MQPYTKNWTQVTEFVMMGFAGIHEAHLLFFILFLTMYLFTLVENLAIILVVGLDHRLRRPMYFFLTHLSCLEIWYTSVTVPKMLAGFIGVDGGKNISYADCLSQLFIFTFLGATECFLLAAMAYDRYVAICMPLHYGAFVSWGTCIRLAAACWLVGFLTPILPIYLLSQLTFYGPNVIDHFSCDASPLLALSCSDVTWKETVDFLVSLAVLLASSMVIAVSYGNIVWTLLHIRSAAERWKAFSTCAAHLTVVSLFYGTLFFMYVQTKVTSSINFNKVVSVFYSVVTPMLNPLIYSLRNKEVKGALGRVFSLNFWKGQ

In assay [7] the target is T9, microfibril associated protein 3, transcript variant 3 (human, UniProt P55082 19-362).
T9 construct: HuProt array protein, full-length recombinant from yeast; also called MFAP3

Assay [8] deals with T10, 5-hydroxytryptamine receptor 1E (human, UniProt P28566 1-365).
T10 construct: HuProt array protein, full-length recombinant from yeast; also called HTR1E

Assay [9] addresses T11, glucuronidase, beta pseudogene (human).
T11 construct: HuProt array protein; labelled _frag; pseudogene product; also called BC025996.2_frag
T11 chain: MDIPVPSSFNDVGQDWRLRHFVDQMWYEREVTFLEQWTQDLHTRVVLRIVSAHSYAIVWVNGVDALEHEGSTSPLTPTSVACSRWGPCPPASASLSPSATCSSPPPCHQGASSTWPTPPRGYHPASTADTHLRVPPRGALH

T9 sequence (P55082 19-362 limits assumed, change not shown): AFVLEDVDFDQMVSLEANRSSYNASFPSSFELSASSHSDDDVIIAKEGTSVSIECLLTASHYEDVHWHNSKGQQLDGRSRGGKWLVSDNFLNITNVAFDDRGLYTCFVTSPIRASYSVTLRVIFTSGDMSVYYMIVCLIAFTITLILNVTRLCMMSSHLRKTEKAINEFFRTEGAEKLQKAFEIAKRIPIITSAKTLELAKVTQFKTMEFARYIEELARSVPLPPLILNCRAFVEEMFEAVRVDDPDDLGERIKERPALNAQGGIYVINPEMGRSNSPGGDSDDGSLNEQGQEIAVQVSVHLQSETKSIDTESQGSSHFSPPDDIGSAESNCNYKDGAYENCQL
T10 sequence (P28566 whole entry): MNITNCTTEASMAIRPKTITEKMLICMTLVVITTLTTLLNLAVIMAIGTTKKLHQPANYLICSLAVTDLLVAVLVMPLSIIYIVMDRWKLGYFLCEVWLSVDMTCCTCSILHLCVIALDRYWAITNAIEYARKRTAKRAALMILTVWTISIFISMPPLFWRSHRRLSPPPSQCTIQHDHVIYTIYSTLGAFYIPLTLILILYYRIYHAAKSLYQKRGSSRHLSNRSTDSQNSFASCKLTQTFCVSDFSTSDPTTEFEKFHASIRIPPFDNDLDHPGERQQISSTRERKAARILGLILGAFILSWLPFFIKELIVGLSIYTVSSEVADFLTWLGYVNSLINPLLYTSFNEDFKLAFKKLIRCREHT
T6 sequence (P12814 whole entry, change not shown): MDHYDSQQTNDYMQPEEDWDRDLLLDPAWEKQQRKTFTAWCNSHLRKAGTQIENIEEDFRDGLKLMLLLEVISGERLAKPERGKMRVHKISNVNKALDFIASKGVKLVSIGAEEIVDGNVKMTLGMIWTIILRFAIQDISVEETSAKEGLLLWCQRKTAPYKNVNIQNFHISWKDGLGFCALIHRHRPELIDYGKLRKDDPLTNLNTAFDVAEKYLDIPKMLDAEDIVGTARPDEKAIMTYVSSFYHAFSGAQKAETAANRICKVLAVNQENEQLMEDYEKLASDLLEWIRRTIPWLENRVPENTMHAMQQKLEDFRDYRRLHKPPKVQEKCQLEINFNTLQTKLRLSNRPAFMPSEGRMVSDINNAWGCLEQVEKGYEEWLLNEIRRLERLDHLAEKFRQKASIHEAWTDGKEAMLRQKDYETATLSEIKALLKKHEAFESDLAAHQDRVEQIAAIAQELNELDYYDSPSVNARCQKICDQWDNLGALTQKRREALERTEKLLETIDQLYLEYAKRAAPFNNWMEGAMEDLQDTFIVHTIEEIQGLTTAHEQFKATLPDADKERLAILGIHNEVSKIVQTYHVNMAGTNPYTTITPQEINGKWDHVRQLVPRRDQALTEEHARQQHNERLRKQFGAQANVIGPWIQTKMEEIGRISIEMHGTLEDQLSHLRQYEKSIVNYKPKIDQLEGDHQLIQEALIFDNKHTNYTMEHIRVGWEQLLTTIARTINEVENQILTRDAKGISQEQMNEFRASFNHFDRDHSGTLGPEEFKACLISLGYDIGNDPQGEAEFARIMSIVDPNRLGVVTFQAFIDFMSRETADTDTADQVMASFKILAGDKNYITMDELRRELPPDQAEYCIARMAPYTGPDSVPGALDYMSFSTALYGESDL
T7 sequence (Q9UNI6 whole entry): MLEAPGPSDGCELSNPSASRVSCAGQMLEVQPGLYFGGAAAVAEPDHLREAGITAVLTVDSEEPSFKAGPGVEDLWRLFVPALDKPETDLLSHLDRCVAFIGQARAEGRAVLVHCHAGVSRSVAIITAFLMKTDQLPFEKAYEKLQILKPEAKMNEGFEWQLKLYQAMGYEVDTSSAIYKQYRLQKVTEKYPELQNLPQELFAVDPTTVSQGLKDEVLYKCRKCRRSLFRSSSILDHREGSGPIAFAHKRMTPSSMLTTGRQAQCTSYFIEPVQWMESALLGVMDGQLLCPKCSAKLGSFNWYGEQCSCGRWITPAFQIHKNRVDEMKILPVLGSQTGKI
T5 sequence (P78358 whole entry): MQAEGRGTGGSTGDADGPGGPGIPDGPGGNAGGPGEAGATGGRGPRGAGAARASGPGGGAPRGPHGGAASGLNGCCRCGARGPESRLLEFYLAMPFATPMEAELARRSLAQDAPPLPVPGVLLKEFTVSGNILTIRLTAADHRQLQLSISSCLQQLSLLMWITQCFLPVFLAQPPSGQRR

B1: TBRE1013 (antibody, V domains shown)
VH: EVQLVESGGGLVKPGGSLRLSCAGSGFSFSSYSMNWVRQAPGKGLEWVSSISSKSSSKNYIDSVKNRFIISRDNAKNSLYLQMNSLRAEDTAVYYCARDLELIIAAGAPLDHWGQGTLVTVSS
VL: DIQMTQSPSSLSASVGDRVTITCRASQSIKNYVNWYQQKPGEAPNLLIFAASNLQSGVPSRFTGSGSGTDFSLTISSLQPEDFAAYYCQQTYSHPRTFGQGTRVEIKR
notes: VH/VL only
As for B1, in assay [1], the binding result is on record as “binds”.

B2: TBLA1007 (antibody, V domains shown)
VH: QVQLVQSGAEVKKPGASVKVSCKASGYTFTNYGFSWVRQAPGQGLEWMGRITTYNRDTIYAQKFQGRVTMTTDTSTSTAYMELRSLRSDDTAVYFCARVVPGDSVYGAFDIWGQGTMVTVSS
VL: DIQMTQSPSSLSASVGDRVTITCRASQSISSYLNWYQQKPGRAPRLLIYAASRLQIGVPSRFSGSGSGTDFTLTISSLQPEDFATYYCQQSYRMPCSFGQGTKLEI
notes: detected with anti-human IgG Fc
B2: the binding result (with Reticulocalbin 3; in assay [2]; in assay [3]) was “binds” in each case.

B3: TBLA1012 (antibody, V domains shown)
VH: LLQLVESGGGVVQPGRSLRLSCAASGFTFTRHGFHWVRQAPGKGLEWVAVISSDGRKIHYTDSVKGRFVISRDDSDNTVYLHMNSLRLGDTALYYCARDSGGTPGPYWGQGTLVTVSS
VL: DVVMTQSPLSLPVTLGQPASISCRSSQSLVHSDGNTYLNWFQQRPGQSPRRLIYMVSNRDSGVPDRFSGSGSGTDFTLKISRVEAEDVGVYYCLQGTHWPPTIGQGTKVEIE
notes: as for B2
As to B3, in the assay with cancer/testis antigen 1A, the binding result was “binds”.

B4: TBRE1007 (antibody, V domains shown)
VH: QVQLQESGPGLVRPSETLSLTCDVSGYLISSGYYWGWVRQPPGKGLEWIGSVYHSGNAYYNPSLKGRVTMSVDTSKNQFSLKLTSVAAEDTAVYYCAREHRSGYQRYWGQGTLVTVSS
VL: IQMTQSPSSLSASVGDRVTITCRASQAIANSLAWYQQRPGKAPKLLIYAASSLESGVPSRFSGSGSGTDYTLTISSLQPEDFATYYCQQYYINPRTFGQGTKVEIKR
notes: as for B2
With B4, the binding result in assay [4] and in assay [5] was “binds” throughout.

B5: TBLA1010 (antibody, V domains shown)
VH: EVQLVESGGGLVQPGRSLRLSCAASGFPFGDYAMHWVRQAPGKGLEWVSGIGWDSGGIGYADSVKGRFTISRDIAKNSLYLEINSLRPDDTALYYCAKAAATLPYFRFAMDVWGQGTPVTVSS
VL: EIVLTQSPGTLSLSPGERATLSCRASQSVSSSYLAWYQQKPGQAPRLLIFGASTRASGIPDRFSGRGSGTEFTLTISRLEPEDFAVYYCQQYDSSPFTFGPGTKVEIKR
notes: as for B2
As for B5, the binding result in assay [6] is on record as “binds”.

B6: TBRE1002 (antibody, V domains shown)
VH: QVQLVESGGGVVQPGGSLRLSCGASGFAFSSNGMHWVRQAPGKGLEWVAFIHYDGRNKHYTDSVKGRFAISVDDSKTTLYLQMSSLKTEDTAVYYCVKDSRVTGQSSGYIFDSWGQGTLVTVSS
VL: ETVMTQSPATLSVSPGDRATLSCRASQNVNFNLAWYQQKPGQAPRLLIYDASTRATGIPARFSGSASGTEFTLTINSLQSEDFAVYYCQQYNNWWTFGQGTKLEIKR
notes: as for B2
For B6, the binding result in [7] was “binds”.

B7: TBLA1013 (antibody, V domains shown)
VH: EVQLLESGGGLVQPGGSLTLSCVGSRFTFSSYAMNWVRQSPGRGLEWVASISATTGSTYYTDSVEGRFTISRDNSRDTLYLQMNSLRADDTALYYCVRSFVGAVPAYPNFDFWGPGTLVTVSS
VL: PSGLTQPPSASGTPGQRVTMSCSGSSSNIGRNYVYWYQQLPGAAPKLLIYRDNQRPSGVPDRFSGSKSGTSASLAISGLRSEDEADYYCAAWDDNVSGPGFGAGTRLTVLG
notes: as for B2
In the case of B7, in [8], the binding result is reported as “binds”.

B8: TBRE1006 (antibody, V domains shown)
VH: QVQLVQSGAEVKKPGASVKVSCKASGYIFTSYAIHWVRQAPGQRLEWMGWINAGNGNTKYSQKFQGRVTITRDTSANTAYMELSSLRSEDTAIYYCARDIAVAITNYFGSWGQGTLVTVSS
VL: EIVLTQSPATLSLSPGERATLSCRASQSVGSYLAWYQQKPGQAPRLLIYDASNRATGIPARFSGSGSGTDFTLTISSLEPEDFAVYYCQQGSNWLALTFGGGTKVEIKR
notes: as for B2
Take B8: the binding result in assay [9] was “binds”.
